We go through 17 sequences from the DeepSol protein solubility set.

The nature of the data set: soluble on expression in E. coli; label from the status in PepcDB or PDB records.
Turning to “MGSDKIHHHHHHMSEHLTLPTNKPQVTHFSSGPCAKHPGWSVSNLENACLGRSHRSEDGKAKLSEVIERSKQILGLPADYRLGIVPASDTGAVEMALWSLLGQRPLDILAWESFGQEWVKDVVDELKLPDVRLLKAPYGGLPNLDEVDFSHDVVFLWNGTTSGVRVPNGDWIKDDRQGLTICDATSAVFAMDIPWEKIDVLTYSWQKVLGGEAQHGVIVLSPRAVERLQTYEPAWPIPKIFRLSQKGKLIEGIFKGDTINTPSMLCVEDALDALIWAESVGGLPGLISRSEANLAAIAQWVKQSNWADFLAEKPETRSCTSICLKIVDAAFASLSAEDQGKFAKKLAKLLEKQQVAYDIAPYRAAPPGLRIWGGATVETADIEALLPWLDWAYANVKAEFVPVA”, the “soluble on expression in E. coli” value was “not soluble”.

On to “MGSDKIHHHHHHMSEIETIQAYYAASLGKDGRITRTQRQILAAALDLFAEKGYEEVGTREIAERAGVAEGTLFHNFVNKNGILDAIMQPIVQNILPTMLNTLDQAVLDSPNQTLQAFVVALVRDRVAFVTRNRASLAVILSQFFNNAQDRAAVLGMVSPSILAQANEAMDRLKAARELVDWPNRMILQLVFSTIGGYLVEQVLYPQLDDLSDEQLIHYLSDFLVNGLSPRRIPLQDDNTAS”, for which the “soluble on expression in E. coli” value is given as “not soluble”.

Consider “MGSDKIHHHHHHMSFEVTFDGMRYSCVNCAYCCSCKNWRVFLSYFDMMRLKGYENYIEKSNSNYEHVLALRNGKCGLIENNLCRIQLEKSYDTKPAMCRLFPFSFMVKWNGDLLLILKHYCGGVQVGKCSKKTIKHAIECCEELYHDQLSEFSLDFAERSDKTSLNEKTEICWEERAELGKYFFKIKKFDSFSEKYSEIFSEDISDSIEKLKSKNSCFDEKTQKLREKETLRYMYELNKREHFRKMSFKKELDNLINVGIIIDDYKDLLKGEGAVDSKLLLN”, for which the “soluble on expression in E. coli” value is “not soluble”.

“MGSDKIHHHHHHMSFFNKIILIGRLVRDPEERYTLSGTPVTTFTIAVDRVPRKNAPDDAQTTDFFRIVTFGRLAEFARTYLTKGRLVLVEGEMRMRRWETPTGEKRVSPEVVANVVRFMDRKPAETVSETEEELEIPEEDFSSDTFSEDEPPF”: the “soluble on expression in E. coli” value is listed as “soluble”.

As to “MGSDKIHHHHHHMSFSMLRAALVLGSIGCAFSPQVNAKLNPLTVQIQPLAQSKLLLDLANAGDQLIAVGQRGHVLVYDKSWIQVPTPVLSQLTKVFFLDAKLGWAVGHDASIIHTQDGGQTWQLQMQSREIEKPFLDIRFFNANEGIAIGAYGLFYRTLDGGKTWEPEFHEELLFEEDVSYLAELKAEDEALYLSERAALLPHFNRIIRLNDSRLLLVGELGLVAESKDNGKHFTRTDFDYDGSMFNAIQVGEQIYVMGLRGHVFKTDLSLSDWQQVELPVKSSINGALVHKGELYIVGNAGVVLRLDGKGHAEIVARRQGENIVAVAESADKQLWFAGSNGLFQLK”, the “soluble on expression in E. coli” value was “not soluble”.

With “MGSDKIHHHHHHMSFSNEMKVFSGNANRPLAEKIANYLNLQLGDCEVGRFADGEINVRINETVRGHDIFLIQPTSPPVNENLMELLIMIDAFKRASANTIAVVIPYYGYARQDRKAKGRDPISAKLVANLITVAGATRVLTVDLHAEQIQGFFDIPVDNLWSYPVFAEELLKRENIVPEETVVVSPDVGGVRRARRMAERLGTSLAILDKRRPSDNVAEVVNIIGEVEDKVVIMFDDIIDTAHSIVKGAEALKNAGAKRIIACATHGVFSDRALERIENSSIDTVYITDTIYHENLPEKVKVISVANLIGEAIMRIRKHLSVSTLFR”, the “soluble on expression in E. coli” value is given as “not soluble”.

As for “MGSDKIHHHHHHMSGLCAKCVDGCTGGCETWLASFRGREVLYPGPFGDITAGAVKDYPVDYSHLNILGYARGAEGLPEGVEPGPDTAIFTNVDTTTEYGWDIKVKMKVPIFTGALGSTEIARKNWDHIAVGAAISGITVVCGENVAGVDPDLELDSNGKVKKSPELDRRIEIYKRYHDGEYGEILIQMNVEDTRLGVAEYVINKHGIETIELKWGQGAKSIGGEIKVRSLERALELKRRGYIVLPDPELPEVQRAFKEGEIKEFERHSRLGFVSKESFLKEVERLRKLGFKRITLKTGAYSAVELAMALRYGAEAKVDLITVDGAPGGTGMSPWPMMNEWGIPTFYLEALTYQFAEKLSRRGIRVPDIAIAGGFSTEDGVLKAIAMGSPYVKAVCMGRALMIPAMVGKNIGEWLKSGNLPKTVSKYGTTVEEIFVTYEELRSRFGEEEVKKLPLGAIGVYTFVQKFKTGLQQLMAGARKFRLSALSRKDLIALTKDAAEISGIPYVMESYRDEAERILEE”, the “soluble on expression in E. coli” value is recorded as “not soluble”.

In the case of “MGSDKIHHHHHHMSIHPALESVGQLFGANLIFRVPRYQRYYAWDAEQIGDFLADLELCLKARAGGNRREHFFGGLVTVRTDVEGSSRQNMEVIDGQQRLASFSMLAAQLRNAAVQLAESVDAAVPDNPKEFLLEFAKTLKAEFERYKDKIKLQVVEIDRLELSKPDLIFFKDLVEGRNPTPSRMSHRLLKQAWDRIGAKLAQIVASENTDVEKAQALSLVDTVMEEDWNPHPHDH”, the “soluble on expression in E. coli” value was “not soluble”.

As for “MGSDKIHHHHHHMSIKILQPGLFSTVQDLGRKGYEHIGFSGAGAMDQFSFKVAQLLINNDGPAIEYTLIGPTIQFNTQNTFVITGGSVNASLNNKTISMNSVILAEKGDILKIGAITKGARGYLTFGHSINVPPIAESYATHTRSSIGGFKGRKLLANDVITVKINNDFKENIGKTIHLQDDLLPENNIIHILQGPQFEAFSEEARAKIVNHPYLITEQSDRMGYRLEGDSVAPINQADIISEPVALGSVQVPNDGQPIILLNDKQTIGGYTKIATVCKFDLPKLAQMKPQDTIQFKWISFQEAVDKNREQMSLFNEILKSHQKTPIFDTSSLRHTSKKLATILKGDL”, the “soluble on expression in E. coli” value is on record as “not soluble”.

In the case of “MGSDKIHHHHHHMSIKTFELISTTENGIQLISYVALPEAASDDNPVAGILVAPEWWGVVEHPKNVTERLAKAGYAAVAMDVYGEGKLTSDAAQANMWMEQVLADQDMLMARCRLILNDFSDQLAVDSDNLGAIGYCFGGKIVLDMAREGMPLKAVATFHGNPSPKQPADKQFSAKVLVAHGRDDSMVSMDAIEGLKAELDGADIDYTIDVYDGAKHGFTNPNADERAAKNGVDLGYNETAAKQSWDNMLEFMKDNLA”, the “soluble on expression in E. coli” value is given as “not soluble”.

For the sequence “MGSDKIHHHHHHMSILNLFRKNKNKNNIDFNEKSNKSKQTSNNTMTPSQEYNSISTHNVEVKNEINKVLNVSYNDTTNLYELEKQAREKSDALYDIHTNSINKFNPQNNILETDTKPLTSIEKSFLKYIIGENIYEPYIATYWTYEYNINYSYLISKFFNMDYLKISNYIEDLTKLTVSELKEILKSNNIKSTGKKAELIERIEKEISCKDLSNFFNSSNKYYALTDKGKELLKDVRKSVTKNTDLEDQCLELIYIDKYEEAYDLICKYESSKNIQRGININWENHKITPMKIESYKAIKELDINLKDTLLDNIIKSSYILCDMLGNNSKTSILVKRLAGEKIDNIEINNAINSINDVIYNHSTITYNANDSINNKNLHYMDIVKNNKSIPFEVNNKNYNFKINENEIYFFNILKIKMYENELKNNFVFDRMSDGAFNVFDTSDNFIGKVKLQGRKKWIMYMKNEFGSEHIYGELIHLIDGIDAWIKYSKEYLK”, the “soluble on expression in E. coli” value is given as “not soluble”.

On to “MGSDKIHHHHHHMSIYHDVIKSEVFPALGCTEPIAVAYAASLAAERLGAEVETVTASVDPGVFKNGFAVTVPKTGGLKGNVIAAALGALIARPELKMEILSGADERLLAQAELLVSSGRATVALVKERTDLYIDVVVTGGGRTARAVLEGGHTNIVRLECDGRILLNADEPVSAVDSHAYRAVLRQMTFSEMIGLLDDLDQGDLVYLKRGVEMNLRIAEEGKQLTKVGHYVEELVRKGFLLADVVSSSKILTASASDARMAGLPYPVMSSGGSGNQGIVAILVPYNVGMFFHVPEETILRSIALSHLVNAYIKCHTGDLAPICGCAIAAGVGAAVAIVYQQAGPDMHKIDLAVNTIISDIGGMLCDGAKGGCALKVVSSTDAAIRAAYMALNGHGISEEEGFVGKSAEETIHNLSRIADKGMALVDDTMLCIMLQKRSTEP”, for which the “soluble on expression in E. coli” value is recorded as “not soluble”.

Turning to “MGSDKIHHHHHHMSKIGLTTTVPVEVIYAAGDTPVDLNNIFISDTREAMLRIEEAELAGYPRNVCGWIKGLYATALKSPEIKKIVAVTQGDCSNTHALMETWSEEGIEIIPFAFPYDRDGDMLRLQLEKLITALGTTWDQVREQKVRLDQVRQLAWEIDRLTWQENQVRGFENHLHLVSCSDFNGDPEGFARDLEGFIAEAREREPLNLQFKGRKKRELRLGFMGVPPIMPDLYNFLEEHGARVVFNEVQRQFSMPFATEDIVEQYQLYTYPYNVFGRIEDVAQEAERRQLDGLIHYTQSFCYRQIEDLIVRRRLDYPILNLEGENPTGLDARSKMRLESFLQMLRD”, the “soluble on expression in E. coli” value is recorded as “not soluble”.

In the case of “MGSDKIHHHHHHMSKKVVLTREASKNKPWQTYFSQNGYEVMSIPLIKTQPIKINLTREQQETDWLFLTSANAVEYFFTNQYERSNYKIAVIGEKTKEKLAEFGHEPSFVPSIYQSEVFLEEWLNENPEKTSILLPQSNLSRTIIKDTLIEKGYIVFSIELYETIFPEASKKLLTEQLKLNETQIIVFASPSAWKNFYSIAKSFPAQKEKWHIASIGSITTEAILADGWEVKYQPKTFTMKHLADLIIQEELK”, the “soluble on expression in E. coli” value was “not soluble”.

As to “MGSDKIHHHHHHMSKLIETRGLTKKYPGVVALDHVDFDLEPGEVHVLFGENGAGKSTLISMLAGANAPSEGRLLLNGEEVQFESVADAQAKGIYTVFQEFSLIPTLTVAQNIFLGWELRFGPFLDHRAMRARAREMLAELGFDIDPAAIVAQLSRAQQQMVEITKAFHGDLNVLILDEPTASLTDREVDHLFEFVAKLKAQGVGIVYISHRIQEFERIAERVTVLRDGAVIGTVAMAETDEDALVEMMTGRAFDQIYPSITFSPGETLLEVSDLTAPGISGACFQVRRGEVLGVAGLVGSGKSRLFRAVMGLTPVQSGSIRFKGADITNAPTRKIITRGMYYLSPDRKAEGLDLAKNARDNLAVNIISGQRHSGHGPFIPWGAVNARIDQISDHVELHAGYRSKPTSQLSGGNQQKVLFGKCFGQDADLIIFDEPTVGVDMGTRAALYLLIKELAEAGKAIVVISSDLPEAMNIAHRLLVLAHGTITARLSADEMSEDTVLKYFFDETGASQ”, the “soluble on expression in E. coli” value was “not soluble”.

Regarding “MGSDKIHHHHHHMSKNNNPVEQLLKEKPYILLDGALATELERHGRNLDDPLWSARVLLEEPEQIHRVHANYFKIGADCAITSSYQASVAGFSSRGIKEEEAIELMKQTVYLAQQARAETGPAADHALIAGSIGPYGAYLSDGSEYIGHYGVDDAQLEAFHRPRLEALIAAGADVLAFETIPSLQEAKMLFRLLEEFPEQSAWLAFSLRDATHISEGTPLSECIEALGDHPQLAAIGANCFPASIATEFITTLKQLTDVPIIVYPNSGEQYDPVSKTWSGETVRTAFEDIAPEWYAAGARLIGGCCRTTPEQIGEIRKIVHAQ”, the “soluble on expression in E. coli” value is reported as “not soluble”.

For “MGSDKIHHHHHHMSKSLIRIAPGALTIGKPLPWDVFDSEGNILLRQGYVIQTNSQLEQLFERGRFKPRKIERPKEETFEDLRQRNPFAEYGDLLTTLEVTLNAITSEDPTAQKRLLGLCRMLDKTCQEAPDASLALVHLYSISPTIHEQILFYGILCHFIARQFGLEEKRATVLTAAALTANLALVPVADQLNASNTVLTDDQRAVIRKHPARSIQALTSAGINNKLLLRIIAQHHEQADGSGYPEGLSGSDILPEAEILALAERYVAMITKRAYRNRMNITEARKLIATLADGKFRPAIPRSLLQVLGDHPPGMLVRLVNNEVGVVTRRADRTRGPFVKAIFGPRGNRYNGTFERDTSLLEYNVRAPEEPEIMPSMDFSMLWGFRS”, the “soluble on expression in E. coli” value is “not soluble”.
